Patent publication US20240085427A1 (published 2024)

Columns and labels:
[1] = target: T1, Anterior Gradient 2 (AGR2) (UniProt O95994 21-175); assay: BLI (Octet)
T1 chain: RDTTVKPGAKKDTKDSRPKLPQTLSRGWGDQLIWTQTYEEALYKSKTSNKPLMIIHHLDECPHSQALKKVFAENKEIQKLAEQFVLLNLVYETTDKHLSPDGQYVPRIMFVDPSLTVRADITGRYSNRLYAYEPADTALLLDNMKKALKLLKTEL

[2] = target: T2, Anterior Gradient 2 (AGR2) (UniProt O95994 21-175, limits assumed); assay: cell-based or functional assay
T2 sequence (looked up): T1 chain

[3] = target: T3, bovine serum albumin (BSA) (bovine, UniProt P02769 25-607); assay: ELISA on coated plates (FIG. 6A)
T3 construct: Control coating in ELISA; also called control (BSA)
T3 sequence (P02769 25-607 limits assumed): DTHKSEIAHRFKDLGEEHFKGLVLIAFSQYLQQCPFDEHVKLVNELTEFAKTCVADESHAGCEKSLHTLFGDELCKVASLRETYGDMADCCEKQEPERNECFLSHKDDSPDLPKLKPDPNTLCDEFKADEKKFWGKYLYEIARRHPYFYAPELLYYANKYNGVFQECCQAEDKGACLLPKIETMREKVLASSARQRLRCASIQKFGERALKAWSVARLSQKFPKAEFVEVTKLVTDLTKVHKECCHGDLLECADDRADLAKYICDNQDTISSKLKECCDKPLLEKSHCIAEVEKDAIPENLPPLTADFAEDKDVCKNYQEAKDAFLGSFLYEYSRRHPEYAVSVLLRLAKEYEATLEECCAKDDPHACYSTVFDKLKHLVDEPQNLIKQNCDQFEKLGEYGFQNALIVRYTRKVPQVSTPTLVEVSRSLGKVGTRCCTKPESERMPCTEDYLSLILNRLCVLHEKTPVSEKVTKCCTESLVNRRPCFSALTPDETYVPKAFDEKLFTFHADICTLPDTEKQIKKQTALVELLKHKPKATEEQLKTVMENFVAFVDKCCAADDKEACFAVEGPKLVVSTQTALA

[4] = target: T2, Anterior Gradient 2 (AGR2); assay: ELISA and SPR (so in the source); the same KD in mass units
[5] = target: T2, Anterior Gradient 2 (AGR2); assay: ELISA and SPR (so in the source); purified scFv on AGR2
[6] = target: T1, Anterior Gradient 2 (AGR2); assay: ELISA
[7] = target: Anterior Gradient 2 (AGR2) (UniProt O95994); assay: cell-based or functional assay

B1: anti-AGR2 scFv clone-15 (scFv)
scFv: EVQLLESGGGLVQPGGSLRLSCAASGFTFSSYAMSWVRQAPGKGLEWVSGISAQGAHTTYADSVKGRFTISRDNSKNTLYLQMNSLRAEDTAVYYCAKTYKGFDYWGQGTLVTVSSGGGGSGGGGSGGGGSTDIQMTQSPSSLSASVGDRVTITCRASQSISSYLNWYQQKPGKAPKLLIYSASRLQSGVPSRFSGSGSGTDFTLTISSLQPEDFATYYCQQGRRMPPTFGQGTKVEIK
notes: Found by phage display, cloned into pET22b, produced and purified in BL21(DE3) E. coli; also called AGR2-scFv-15; scFv-15
With B1 the Kd [1] was 0.00157 µM, the “EC50 in the same TDCC assay (Capan1 cells with human PBMCs), scFv alone as comparator” value [2] was 19.8 µM and the binding result [3] was “no binding”. For the same binder, the Kd [4] was 4.69 mg/L and the Kd [5] was 0.179 µM.

B2: anti-AGR2 scFv clone 19 (scFv)
scFv: EVQLLESGGGLVQPGGSLRLSCAASGFTFSSYAMSWVRQAPGKGLEWVSAIASQGVATGYADSVKGRFTISRDNSKNTLYLQMNSLRAEDTAVYYCAKLDQHFDYWGQGTLVTVSSGGGGSGGGGSGGGGSTDIQMTQSPSSLSASVGDRVTITCRASQSISSYLNWYQQKPGKAPKLLIYQASRLQSGVPSRFSGSGSGTDFTLTISSLQPEDFATYYCQQARRLPLTFGQGTKVEIK
In the case of B2, the EC50 [6] is reported as over 100 mg/L.

B3: human targeted AGR2xCD3 BiTE (anti-AGR2 scFv clone-15 linked to anti-CD3 scFv derived from Orthoclone OKT3) (bispecific antibody, part only; not given: anti-CD3 scFv, linker, His tag, not shown: small tags and cut ends)
chain, part: EVQLLESGGGLVQPGGSLRLSCAASGFTFSSYAMSWVRQAPGKGLEWVSGISAQGAHTTYADSVKGRFTISRDNSKNTLYLQMNSLRAEDTAVYYCAKTYKGFDYWGQGTLVTVSSGGGGSGGGGSGGGGSTDIQMTQSPSSLSASVGDRVTITCRASQSISSYLNWYQQKPGKAPKLLIYSASRLQSGVPSRFSGSGSGTDFTLTISSLQPEDFATYYCQQGRRMPPTFGQGTKVEIKEVQLLESGGGLVQPGGSLRLSCAASGFTFSSYAMSWVRQAPGKGLEWVSGISAQGAHTTYADSVKGRFTISRDNSKNTLYLQMNSLRAEDTAVYYCAKTYKGFDYWGQGTLVTVSSGGGGSGGGGSGGGGSTDIQMTQSPSSLSASVGDRVTITCRASQSISSYLNWYQQKPGKAPKLLIYSASRLQSGVPSRFSGSGSGTDFTLTISSLQPEDFATYYCQQGRRMPPTFGQGTKVEIK
With B3 the EC50 on Capan1 cell viability, BiTE alone (no PBMCs) [7] was 16.5 µM.

B4: anti-AGR2 scFv clone 26 (scFv)
scFv: EVQLLESGGGLVQPGGSLRLSCAASGFTFSSYAMSWVRQAPGKGLEWVSSIQGQGRITRYADSVKGRFTISRDNSKNTLYLQMNSLRAEDTAVYYCAKRAIMFDYWGQGTLVTVSSGGGGSGGGGSGGGGSTDIQMTQSPSSLSASVGDRVTITCRASQSISSYLNWYQQKPGKAPKLLIYHASLLQSGVPSRFSGSGSGTDFTLTISSLQPEDFATYYCQQARYWPLTFGQGTKVEIK
B4 gave an EC50 [6] of over 100 mg/L.
